Measurements published in PMC8096781, “FOXM1D potentiates PKM2‐mediated tumor glycolysis and angiogenesis” (Molecular Oncology, 2021).

Target: PKM2 (purchased from Abcam) (UniProt P14618 1-531)
Test: cell-based or functional assay

PKM2 (purchased from Abcam), sequence (P14618 whole entry): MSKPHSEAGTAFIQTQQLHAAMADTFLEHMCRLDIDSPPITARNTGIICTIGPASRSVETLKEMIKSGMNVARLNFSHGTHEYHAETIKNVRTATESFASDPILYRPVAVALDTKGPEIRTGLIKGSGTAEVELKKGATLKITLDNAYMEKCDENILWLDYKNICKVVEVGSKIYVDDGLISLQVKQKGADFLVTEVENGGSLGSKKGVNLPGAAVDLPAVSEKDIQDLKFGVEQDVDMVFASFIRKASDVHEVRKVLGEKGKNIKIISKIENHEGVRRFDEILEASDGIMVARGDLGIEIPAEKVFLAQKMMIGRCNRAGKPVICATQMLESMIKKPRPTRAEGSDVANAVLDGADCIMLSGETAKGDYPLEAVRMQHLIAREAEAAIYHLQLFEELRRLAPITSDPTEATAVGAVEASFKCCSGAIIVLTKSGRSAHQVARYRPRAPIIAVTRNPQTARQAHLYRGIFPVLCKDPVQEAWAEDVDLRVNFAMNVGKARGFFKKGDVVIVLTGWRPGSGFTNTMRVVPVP

PK activity of PKM2 with FBP; FOXM1D added at 10, 20 and 30 μg per 10 μg PKM2 (molar ratios about 0.665, 1.33 and 2); share of the activity abolished at 1.33-fold FOXM1D: ~49%
B1: recombinant Flag-FOXM1D (purified) (natural protein, UniProt Q08050-4 1-786, looked up)
chain: MKTSPRRPLILKRRRLPLPVQNAPSETSEEEPKRSPAQQESNQAEASKEVAESNSCKFPAGIKIINHPTMPNTQVVAIPNNANIHSIITALTAKGKESGSSGPNKFILISCGGAPTQPPGLRPQTQTSYDAKRTEVTLETLGPKPAARDVNLPRPPGALCEQKRETCADGEAAGCTINNSLSNIQWLRKMSSDGLGSRSIKQEMEEKENCHLEQRQVKVEEPSRPSASWQNSVSERPPYSYMAMIQFAINSTERKRMTLKDIYTWIEDHFPYFKHIAKPGWKNSIRHNLSLHDMFVRETSANGKVSFWTIHPSANRYLTLDQVFKQQKRPNPELRRNMTIKTELPLGARRKMKPLLPRVSSYLVPIQFPVNQSLVLQPSVKVPLPLAASLMSSELARHSKRVRIAPKVFGEQVVFGYMSKFFSGDLRDFGTPITSLFNFIFLCLSVLLAEEGIAPLSSAGPGKEEKLLFGEGFSPLLPVQTIKEEEIQPGEEMPHLARPIKVESPPLEEWPSPAPSFKEESSHSWEDSSQSPTPRPKKSYSGLRSPTRCVSEMLVIQHRERRERSRSRRKQHLLPPCVDEPELLFSEGPSTSRWAAELPFPADSSDPASQLSYSQEVGGPFKTPIKETLPISSTPSKSVLPRTPESWRLTPPAKVGGLDFSPVQTSQGASDPLPDPLGLMDLSTTPLQSAPPLESPQRLLSSEPLDLISVPFGNSSPSDIDVPKPGSPEPQVSGLAANRSLTEGLVLDTMNDSLSKILLDISFPGLDEDPLGPDNINWSQFIPELQ
